Source: patent CN102559636A

Molecular target: CD6分子 (CD6 on the cell surface) (human) (UniProt P30203)
Assay: cell-based or functional assay

人源化抗CD6单克隆抗体T1h (Itolizumab) (antibody)
HUT-78生长抑制率 (CCK-8, 72 h, 100 ng/mL Hum-zap) at T1h 0.8 μM: 11.4%
细胞生长抑制率 of HUT-78 (CCK-8, 72 h, 100 ng/mL Hum-zap) at T1h 8×10-2, 8×10-3 and 8×10-4 μM: > 65%
细胞生长抑制率 of HUT-78 (CCK-8, 72 h, 100 ng/mL Hum-zap) at T1h 8×10-5, 8×10-6, 8×10-7 and 8×10-8 μM: < 10%
